Source: patent publication US20110020347A1

Molecular target: mouse CXCL14 (R&D Systems) (mouse) (UniProt Q9WUQ5)
Test: cell-based or functional assay

Chain of UniProt Q9WUQ5 (Q9WUQ5 23-99): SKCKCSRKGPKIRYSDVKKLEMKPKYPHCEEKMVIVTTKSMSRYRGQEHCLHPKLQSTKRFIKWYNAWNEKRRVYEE

rat anti-mouse CXCL14 monoclonal antibody (MAB730, R&D Systems)
inhibition of attraction (chemotaxis) of forskolin-stimulated C2C12 cells by mouse CXCL14, antibody at 10 µg/ml, CXCL14 at 100 nM: 54%
